Assay: soluble on expression in E. coli; label from the status in PepcDB or PDB records

With “MVQKEGVLRVITRNSPATYFQDRNGETGFEYELAKRFAERLGVELKIETADNLDDLYAQLSREGGPALAAAGLTPGREDDASVRYSHTYLDVTPQIIYRNGQQRPTRPEDLVGKRIMVLKGSSHAEQLAELKKQYPELKYEESDAVEVVDLLRMVDVGDIDLTLVDSNELAMNQVYFPNVRVAFDFGEARGLAWALPGGDDDSLMNEVNAFLDQAKKEGLLQRLKDRYYGHVDVLGYVGAYTFAQHLQQRLPRYESHFKQSGKQLDTDWRLLAAIGYQESLWQPGATSKTGVRGLMMLTNRTAQAMGVSNRLDPKQSIQGGSKYFVQIRSELPESIKEPDRSWFALAAYNIGGAHLEDARKMAEKEGLNPNKWLDVKKMLPRLAQKQWYAKTRYGYARGGETVHFVQNVRRYYDILTWVTQPLEHHHHHH” the “soluble on expression in E. coli” value was “soluble”.

For “MERLKIQVLVDNNTYIDRYFVGEPAVSYYIEIDGNRILFDSGYSDVFISNAEKLNIDLGNLTHVVFSHGHNDHTRGIQFLENRYDLSTVELVSHPNCFIPRKHGEKSIGAPFSAEEIKNIFMYNPKDKPFNLSKNCVFLGEIPSINDFEKRAKIGKCKIGDLWEDDYVLDDSAIVCKTDKGIFIVTGCSHSGICNIVEYAKKVCGDDRVIGILGGFHLFELNNRLDSTIQYLDKEEIRMLYPCHCVSFKVKAKMNEILNINEVGVGLTISILEHHHHHH”, the “soluble on expression in E. coli” value was “soluble”.

With “MMGRGKLILIEGLDRTGKTTQCNILYKKLQPNCKLLKFPERSTRIGGLINEYLTDDSFQLSDQAIHLLFSANRWEIVDKIKKDLLEGKNIVMDRYVYSGVAYSAAKGTNGMDLDWCLQPDVGLLKPDLTLFLSTQDVDNNAEKSGFGDERYETVKFQEKVKQTFMKLLDKEIRKGDESITIVDVTNKGIQEVEALIWQIVEPVLSTHIDHDKFSFF” the “soluble on expression in E. coli” value was “soluble”.

With “MSLAAPVHAAPLAATASKFLGCAYGAQQAPGFAQYWNKLTPENGGKWGSVEAVRDQMDWSTLDAAYRFAQANQMPFQMHVMVWGNQQPEWIKTLRPAEQRREIEQWFAAVAQRYPDIALLEVVNEPLNDPPSKADTGGGNYLQALGGNGDSGWEWVLQSFRLARRHFPHTKLMINDYSITSSAQATQKYLQIVRLLQRENLVDAIGVQEHAFETTPEVAVSVHRDNLDALAATGLPIYITEFDLDGPTDAQQLADYKRVFPVFWEHPAVHGITLWGFRPGLWRDKEAAYLIRADGTERPALTWLRDYVAAHPGTEGHHHHHH” the “soluble on expression in E. coli” value was “soluble”.

For “VAATKASTATDEPVKRTATKSPAASASGAKTGAKRTAAKSASGSPPAKRATKPAARSVKPASAPQDTTTSTIPKRKTRAAAKSAAAKAPSARGHATKPRAPKDAQHEAATDPEDALDSVEELDAEPDLDVEPGEDLDLDAADLNLDDLEDDVAPDADDDLDSGDDEDHEDLEAEAAVAPGQTADDDEEIAEPTEKDKASGDFVWDEDESEALRQARKDAELTASADSVRAYLKQIGKVALLNAEEEVELAKRIEAGLYATQLMTELSERGEKLPAAQRRDMMWICRDGDRAKNHLLEANLRLVVSLAKRYTGRGMAFLDLIQEGNLGLIRAVEKFDYTKGYKFSTYATWWIRQAITRAMADQARTIRIPVHMVEVINKLGRIQRELLQDLGREPTPEELAKEMDITPEKVLEIQQYAREPISLDQTIGDEGDSQLGDFIEDSEAVVAVDAVSFTLLQDQLQSVLDTLSEREAGVVRLRFGLTDGQPRTLDEIGQVYGVTRERIRQIESKTMSKLRHPSRSQVLRDYLD”, the “soluble on expression in E. coli” value was “soluble”.

In the case of “MLNKEIKGALIVSCQALADEPLHSSFIMSKMALAAKQGGAKGIRANSVVDIRAIRKEVDLPIIGIIKRDYPDAEVYITATMREVDELMAVQPEIIALDATHSKRPNGETLATFFKRIKEKYPNQEWMADCSTLEEMIEAAELGFDYIGTTLVGYTPQSENQRIEQNDFELLREAKKHFTTPIIAEGMIDTPAKVQRVLELGTYSVVVGSVITRPQKITEKFVEATKIKQNQA”, the “soluble on expression in E. coli” value is reported as “not soluble”.

In the case of “MRILIPFKANNPKSRLSSILSEEERKELARLMLLDVIDAAKPFGEIKVVCPSELDVEGVEVVVDTSDLNTTVNKVMDEAPLAVIMSDLPLLSEEVLKRFFETEGDVVVAPGRKGGTNMLLVRKRGFRVSYHFGSFFKHLEMARKMGMKAKIFDSFYSSVDIDDESDLLELMMHGSGKKSYEFLRKIGFSVSFEETPRLERRVFMQP”, the “soluble on expression in E. coli” value is reported as “soluble”.

In the case of “KQATMKNAALKQLTKDADEILHLIKVQLDNLTLPSCPLYEEVLDTQMFGLQKEVDFAVKLGLVDREDGKQIMLRLEKELSKLHEAFTLV”, the “soluble on expression in E. coli” value is reported as “not soluble”.
